These results are taken from article PMC4303685.

Experiment [1] deals with complement C3c (human) (UniProt P01024). As to the kind of experiment: SPR; Biacore X100, C3c amine-coupled to CM5 chip, C3d as analyte, 25 °C, 30 μl/min, steady state analysis; 10 mM Hepes, 50 mM NaCl, pH 7.4.
Experiment [2] has the same target. As to the kind of experiment: AUC; sedimentation velocity, c(s) analysis; PBS in 2H2O (137 mM NaCl, pH 7.4); monomer to dimer, proportions by peak integration.
The target is the same in experiment [3]. Description: AUC; sedimentation velocity, c(s) analysis (SEDFIT), 50,000 rpm, 20 °C; 10 mM Hepes, 50 mM NaCl, pH 7.4; monomer to dimer, KD estimated.
Experiment [4] has the same target. As to the kind of experiment: AUC; sedimentation velocity, c(s) analysis (SEDFIT), 50,000 rpm, 20 °C; 10 mM Hepes, 137 mM NaCl, pH 7.4; monomer to dimer, KD estimated from peak integration.
The target in experiment [5] is recombinant wild-type C3d (E1032) (human) (UniProt P01024). As to the kind of experiment: AUC; sedimentation velocity, c(s) analysis; PBS in 2H2O (137 mM NaCl, pH 7.4); monomer to dimer, proportions by peak integration.
For experiment [6] the target is unchanged. As to the kind of experiment: AUC; sedimentation velocity, c(s) analysis (SEDFIT), 50,000 rpm, 20 °C; 10 mM Hepes, 50 mM NaCl, pH 7.4; monomer to dimer, KD estimated.
Experiment [7] has the same target. As to the kind of experiment: AUC; sedimentation velocity, c(s) analysis (SEDFIT), 50,000 rpm, 20 °C; 10 mM Hepes, 137 mM NaCl, pH 7.4; monomer to dimer, KD estimated from peak integration.

The substance “mutant C3d (A1032), C3d E1032A (from UniProt P01024 996-1287) (domain or fragment)” registered a fold less binding than wild-type C3d with complement C3c (human) [1] of 10 fold.

In the experiment with complement C3c (human) [2], “complement C3c (from UniProt P01024 23-667; P01024 749-954; P01024 1321-1663) (domain or fragment)” returned a dimer proportion of 7% and a stoichiometry N of 2. In addition, in the experiment with complement C3c (human) [3], the Kd was 50 µM and the stoichiometry N is 2. Further, in the experiment with complement C3c (human) [4], the equilibrium dissociation constant (Kd) was 60 µM; the dimer, percent of the total was 6%; the stoichiometry N was 2.

As for “recombinant wild-type C3d (E1032) (from UniProt P01024 996-1287) (domain or fragment)”, in experiment [5], the dimer proportion was found to be 12% and the stoichiometry N amounted to 2. Besides, in experiment [6], the Kd is 25 µM and the stoichiometry N is 2. In the experiment with complement C3c (human) [1], this substance gave an equilibrium dissociation constant (Kd) of 51 µM. In addition, in experiment [7], the dimer, percent of the total is 10% and the stoichiometry N was 2.
